The values that follow come from US20200283507A1 (US Dept. of Health and Human Services, published 2020).

Changes are numbered by the printed parent chain.

Assay [1] addresses T1, Hu/NoV/GI.1/Norwalk/1968/U.S. VLP (human norovirus GI.1, UniProt Q83884 1-530 (Norovirus (strain entry), limits assumed)).
T1 construct: mature; full-length VP1 (ORF2) assembled as virus-like particle in baculovirus/Sf9; also called Norwalk VLP; NV
T1 sequence (looked up): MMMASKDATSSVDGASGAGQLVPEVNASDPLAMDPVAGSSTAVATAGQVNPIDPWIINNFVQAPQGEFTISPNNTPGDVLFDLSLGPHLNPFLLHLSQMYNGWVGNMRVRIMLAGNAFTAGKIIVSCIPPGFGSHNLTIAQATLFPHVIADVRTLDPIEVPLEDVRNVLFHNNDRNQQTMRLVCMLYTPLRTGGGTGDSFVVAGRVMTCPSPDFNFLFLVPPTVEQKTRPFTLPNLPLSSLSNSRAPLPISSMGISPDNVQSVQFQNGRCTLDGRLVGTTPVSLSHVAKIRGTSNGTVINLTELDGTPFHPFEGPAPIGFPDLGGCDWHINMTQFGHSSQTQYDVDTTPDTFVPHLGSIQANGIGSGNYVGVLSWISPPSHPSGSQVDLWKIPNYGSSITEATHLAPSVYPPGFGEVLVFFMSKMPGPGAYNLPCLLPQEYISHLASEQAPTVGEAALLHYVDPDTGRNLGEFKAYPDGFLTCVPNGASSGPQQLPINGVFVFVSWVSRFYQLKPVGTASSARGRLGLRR
Description: VLP ELISA. A general note: An ELISA detects its analyte on a solid surface through an enzyme-linked reagent.

The target of assay [2] is T1, Hu/NoV/GI.1/Norwalk/1968/U.S. VLP. Description: cell-based or functional assay.
Assay [3] has the same target. Description: blockade ELISA: VLP binding to saliva Ly+. How it is done:
(§1) For this assay saliva positive for Ly antigen collected from a secretor individual was used. Saliva was boiled (95° C.) for 10 minutes immediately after collection, centrifuged for 5 minutes at 13000×g and the supernatants stored at −20° C. until used. ELISA 96 well U bottom polyvinyl plates Dynatech (Nunc, Thermo, EEUU) were coated with 100 μl/well of a 1/400 saliva dilution in 50 μM carbonate-bicarbonate buffer, pH 9.6. The plate was incubated overnight at 37° C. in a wet atmosphere. In parallel, serial two-fold dilutions of VHH starting from 8 ug/ml were mixed with 1.5 ug/ml of NoV VLP Norwalk and MD145 and incubated for 1h at 37° C. After 6 washes and a blocking step with 5% dry milk/0.05% Tween₂₀-PBS, 50 ul of each VHH-VLP mixture was transferred to the reaction plate, in duplicate. The assay was developed using a specific polyclonal antiserum made in guinea pig (1:10,000) followed by a peroxidase labeled anti-guinea pig IgG (1:2,000) and ABTS/H₂O₂ as substrate chromogen (KPL), 100 μl per well. Absorbance at 405 nm was measured. Mean % control binding, EC50 and criteria for determination of a blockade VHH were calculated as described above.

Assay [4] shares this target. Description: blockade ELISA: VLP binding to PGM type III. As for the experimental part:
(§2) Pig Gastric Mucin Type III (PGM) (Sigma Chemicals) was used as a substrate for NoV VLP antibody-blockade assay as previously described. Briefly, PGM was resuspended in PBS at 5 mg/ml and coated onto 96 well U bottom polyvinyl plates Dynatech (Nunc, Thermo, USA) at 10 μg/ml in PBS for 4 hours. Plates were then blocked ON at 4° C. in 5% dry milk in 0.05% Tween₂₀-PBS. […] One hundred μl of VLPs-VHH mix were transferred to the PGM coated plates and incubated for 1 hour. Bound VLPs were detected by specific hyperimmune sera made in guinea pig, followed by anti-guinea pig IgG-HRP (KLP). ABTS/H₂O₂ was used as chromogen/substrate solution. All incubations were performed at room temperature and absorbance at 405 nm was measured. Mean % control binding, EC50 and criteria for determination of a blockade VHH were calculated as described above.

For assay [5] the target is unchanged. Description: blockade ELISA: VLP binding to synthetic HBGA H1.
Assay [6] deals with T2, Hu/NoV/GI.1/P7-587/2007/Stromstad/Sweden VLP (human norovirus GI.1).
T2 construct: mature; baculovirus VLP; VP2 may be present; also called Norovirus 2007
Put plainly: VLP ELISA.

Assay [7] has as its target T2, Hu/NoV/GI.1/P7-587/2007/Stromstad/Sweden …. Put plainly: cell-based or functional assay.
Assay [8] deals with T3, Hu/NoV/GI.3/Desert-Shield395/1990/U.S. VLP (human norovirus GI.3).
T3 construct: mature; baculovirus VLP; VP2 may be present
Put plainly: VLP ELISA.

The target in assay [9] is T4, Hu/NoV/GII.1/Hawaii/1971/U.S. VLP (human norovirus GII.1).
T4 construct: mature; baculovirus VLP; VP2 may be present
Description: VLP ELISA.

Assay [10] concerns the target T5, Hu/NoV/Snow Mountain/GII.2/U.S. VLP (human norovirus GII.2).
T5 construct: mature; baculovirus VLP; VP2 may be present
Description: VLP ELISA.

For assay [11], the target named is T6, Hu/NoV/GII.2/Henryton/1971/U.S. VLP (human norovirus GII.2).
T6 construct: mature; baculovirus VLP; VP2 may be present
Put plainly: VLP ELISA.

For assay [12], the target named is T7, Hu/NoV/GII.3/CHDC4031/1988/U.S. VLP (human norovirus GII.3).
T7 construct: mature; baculovirus VLP; VP2 may be present
Description: VLP ELISA.

The target in assay [13] is T8, Hu/NoV/GII.4/CHDC4871/1977/U.S. VLP (human norovirus GII.4).
T8 construct: mature; baculovirus VLP; VP2 may be present
Description: VLP ELISA.

The target of assay [14] is T9, Hu/NoV/GII.4/RockvilleD1/2012/U.S. VLP (human norovirus GII.4).
T9 construct: mature; baculovirus VLP; VP2 may be present
Description: VLP ELISA.

Assay [15] concerns the target T10, Hu/NoV/GII.4/MD2004/2004/U.S. VLP (human norovirus GII.4).
T10 construct: mature; baculovirus VLP; VP2 may be present; also called MD2004 VLP
Put plainly: VLP ELISA.

Assay [16] has as its target T11, Hu/NoV/GII.4/MD145-12/1997/U.S. VLP (human norovirus GII.4).
T11 construct: mature; baculovirus VLP; VP2 may be present
Description: VLP ELISA.

Assay [17] addresses T12, Hu/NoV/GII.4/HS-191/2001/U.S. VLP (human norovirus GII.4).
T12 construct: mature; baculovirus VLP; VP2 may be present
Put plainly: VLP ELISA.

The target in assay [18] is T13, Hu/GII.6/Bethesda/2012/U.S. VLP (human norovirus GII.6).
T13 construct: mature; baculovirus VLP; VP2 may be present
Description: VLP ELISA.

For assay [19], the target named is T14, Hu/NoV/GII.7/DC119/U.S. VLP (human norovirus GII.7).
T14 construct: mature; baculovirus VLP; VP2 may be present
Put plainly: VLP ELISA.

Assay [20] concerns the target T10, Hu/NoV/GII.4/MD2004/2004/U.S. VLP. Description: cell-based or functional assay.
Assay [21] has as its target T11, Hu/NoV/GII.4/MD145-12/1997/U.S. VLP. Description: cell-based or functional assay.
The target is the same in assay [22]. Description: blockade ELISA: VLP binding to saliva Ly+. As for the experimental part:
as §1

Assay [23] concerns the target T10, Hu/NoV/GII.4/MD2004/2004/U.S. VLP. Put plainly: blockade ELISA: VLP binding to PGM type III. As for the experimental part: as §2
Assay [24] deals with T11, Hu/NoV/GII.4/MD145-12/1997/U.S. VLP. Put plainly: blockade ELISA: VLP binding to synthetic HBGA H3.

B1: VHH 13.1 (VHH)
VHH: QVKLQESGGGWVQAGGSLRLSCAASALTASITTMGWFRQTPEKEREFLAAINWTGDYKYYADSVKGRFTISRDNAKNTVDLQMNQLKPEDTAVYYCAASKIRNDIYLNDYTWYQYWGQGTQVTVSS
notes: llama VHH, Norwalk library, subtractive biopanning; His6 tag; also called 13.2; clone 13
Regarding B1, in assay [1], the “minimum concentration of VHH able to recognize 100 ng of VLP” value (“minimum concentration of VHH able” for short) was 2 ng/well. In assay [2], the “HAI titer, 0 Rh- RBC” value was determined as 0.19 µg/mL. Further, the EC50 in assay [3] was found to be 2.27 µg/mL; in [4], 1.29 µg/mL; in [5] it was 2.03 µg/mL.

B2: VHH 6.3 (VHH)
VHH: QVQLQQSGGGLVQPGGSLRLSCAASGSIFSIHTMGWYRQAPGKQRELVTTITTGGTTNYADSVKGRFTISRDDAKNTVYLQMNNLKPEDTAVYYCYALIQTASTTWYRQYWGQGTQVTVSS
notes: llama VHH, Norwalk (GI.1) library; also called clone 6.3
Take B2: the “minimum concentration of VHH able” value in [1] and in [6] was 0.5 ng/well in each case. The “HAI titer, 0 Rh- RBC” value was found to be 0.19 µg/mL in assay [2] and 0.05 µg/mL in assay [7]. For the same molecule, the EC50 in assay [3] came out at 2.04 µg/mL; in assay [4], 0.661 µg/mL; in assay [5], 1.01 µg/mL.

B3: VHH 7.3 (VHH)
VHH: QVKLQESGGGLVQPGGSLRLSCTASRSIFTRAMAWYRQAPGKQRELVAAIDSGDRTHYADSVKGRFTISRNNAKDTLYLQMNSLKSEDTAVYYCNANLGALLDYWGQGTQVTVSS
notes: llama VHH, Norwalk library; pHEN6, C-terminal His6 tag; also called clone 7.3
Regarding B3, the “minimum concentration of VHH able” value in assay [1], in [6] and in assay [8] was 0.5 ng/well throughout. For the same molecule, the “HAI titer, 0 Rh- RBC” value in assay [2] amounted to 0.39 µg/mL; in [7] it was 0.05 µg/mL.

B4: VHH 19 (VHH)
VHH: QVKLQQSGGGLVQPGGSLRLSCAASGFTFRNYAMSWVRQAPGKGLEWVSAIAAGGAVTKYADSVKGRFTISRDNARDTLYLQMNSLKPEDTAVYYCAKPRDFWYSPEFDFRGQGTQVTVSS
notes: MD2004 library, subtractive biopanning; His6 tag; also called 19.1; clone 19
Take B4: the “minimum concentration of VHH able” value in assay [9] amounted to 1 ng/well; in assay [10] it was 2 ng/well; in [11] it was 2 ng/well; in [12] it was 0.5 ng/well; in [13], 1 ng/well; in assay [14], 2 ng/well. Moreover, the “minimum concentration of VHH able” value amounted to 2 ng/well in [15]; 4 ng/well in assay [16]; 1 ng/well in assay [17]; 2 ng/well in [18]; 1 ng/well in assay [19]. The “HAI titer, B Rh+ RBC” value in assay [20] and in [21] was 0.39 µg/mL in each case. The EC50 in assay [22] is 1.3 µg/mL; in assay [23], 0.583 µg/mL.

B5: VHH 5.4 (VHH)
VHH: QVQLQQSGGGLVQPGGSLRLSCVASESTVSINIMGWYRQAPGKQRELVATITTGGTTNYADSVKGRFTISRDNAKNTVYLQMNSLEPEDTAVYYCNLKRRDLQARFGGYWGQGTQVTVSS
notes: llama VHH, MD2004 library; pHEN6, C-terminal His6 tag; also called clone 5.4
On to B5, for which the “minimum concentration of VHH able” value was determined as 1 ng/well in assay [9]; 2 ng/well in assay [10]; 2 ng/well in [11]; 0.5 ng/well in assay [12]; 0.5 ng/well in assay [13]; 0.5 ng/well in assay [14]. Also, the “minimum concentration of VHH able” value came out at 1 ng/well in [15]; 4 ng/well in [16]; 0.25 ng/well in assay [17]; 1 ng/well in assay [18]; 0.5 ng/well in assay [19]. The “HAI titer, B Rh+ RBC” value in assay [20] and in [21] was 0.39 µg/mL throughout. For the same molecule, the values for the EC50 in assay [22], in assay [23] and in [24] were 1.27 µg/mL, 2.02 µg/mL and 0.718 µg/mL, respectively.

B6: VHH 4.1 (VHH)
VHH: B5 VHH with Q3K, V23A, V29I, I33T, M34L, K43N, S84N, E88G, A104S
notes: llama VHH, MD2004 library; pHEN6, C-terminal His6 tag; also called clone 4.1
With B6, the “minimum concentration of VHH able” value is 1 ng/well in assay [9]; 2 ng/well in assay [10]; 1 ng/well in assay [11]; 2 ng/well in assay [12]; 0.5 ng/well in assay [13]; 1 ng/well in assay [14]. For the same molecule, the “minimum concentration of VHH able” value in assay [15] worked out at 2 ng/well; in assay [16], 2 ng/well; in assay [17], 0.5 ng/well; in assay [18], 2 ng/well; in assay [19], 0.5 ng/well. Further, the “HAI titer, B Rh+ RBC” value in [20] is 0.19 µg/mL; in assay [21], 0.39 µg/mL. Further, the EC50 in [22] came out at 1.38 µg/mL; in [23] it was 2.91 µg/mL; in [24] it was 0.712 µg/mL.

The term EC50 denotes the concentration needed to bring the measured effect to its halfway point. Read a low EC50 as a more potent agent.
